B1: HGLVHK-NH2 (peptide)
peptide: HGLVHK-NH2
notes: also called HGLVHK peptide; peptide number 7
B2: HGDVHK-NH2 (peptide)
peptide: HGDVHK-NH2
notes: also called HGDVHK peptide; peptide number 10
B3: HGDLHK-NH2 (peptide)
peptide: HGDLHK-NH2
notes: also called HGDLHK peptide; peptide number 4
B4: HHLVHK-NH2 (peptide)
peptide: HHLVHK-NH2
notes: also called peptide number 9
B5: HSDVHK-NH2 (peptide)
peptide: HSDVHK-NH2
notes: also called HSDVHK peptide; peptide number 11
B6: HSLVHK-NH2 (peptide)
peptide: HSLVHK-NH2
notes: also called peptide number 8
B7: HHLLHK-NH2 (peptide)
peptide: HHLLHK-NH2
notes: also called HHLLHK peptide; peptide number 3

No end group written: not given here.

The target in the experiment is T1, integrin αvβ3 (UniProt P06756 31-1048; P05106 27-788).
T1 construct: Heterodimer immobilized on ProteoChip
T1 sequence (P06756 31-1048, chain 1 of 2): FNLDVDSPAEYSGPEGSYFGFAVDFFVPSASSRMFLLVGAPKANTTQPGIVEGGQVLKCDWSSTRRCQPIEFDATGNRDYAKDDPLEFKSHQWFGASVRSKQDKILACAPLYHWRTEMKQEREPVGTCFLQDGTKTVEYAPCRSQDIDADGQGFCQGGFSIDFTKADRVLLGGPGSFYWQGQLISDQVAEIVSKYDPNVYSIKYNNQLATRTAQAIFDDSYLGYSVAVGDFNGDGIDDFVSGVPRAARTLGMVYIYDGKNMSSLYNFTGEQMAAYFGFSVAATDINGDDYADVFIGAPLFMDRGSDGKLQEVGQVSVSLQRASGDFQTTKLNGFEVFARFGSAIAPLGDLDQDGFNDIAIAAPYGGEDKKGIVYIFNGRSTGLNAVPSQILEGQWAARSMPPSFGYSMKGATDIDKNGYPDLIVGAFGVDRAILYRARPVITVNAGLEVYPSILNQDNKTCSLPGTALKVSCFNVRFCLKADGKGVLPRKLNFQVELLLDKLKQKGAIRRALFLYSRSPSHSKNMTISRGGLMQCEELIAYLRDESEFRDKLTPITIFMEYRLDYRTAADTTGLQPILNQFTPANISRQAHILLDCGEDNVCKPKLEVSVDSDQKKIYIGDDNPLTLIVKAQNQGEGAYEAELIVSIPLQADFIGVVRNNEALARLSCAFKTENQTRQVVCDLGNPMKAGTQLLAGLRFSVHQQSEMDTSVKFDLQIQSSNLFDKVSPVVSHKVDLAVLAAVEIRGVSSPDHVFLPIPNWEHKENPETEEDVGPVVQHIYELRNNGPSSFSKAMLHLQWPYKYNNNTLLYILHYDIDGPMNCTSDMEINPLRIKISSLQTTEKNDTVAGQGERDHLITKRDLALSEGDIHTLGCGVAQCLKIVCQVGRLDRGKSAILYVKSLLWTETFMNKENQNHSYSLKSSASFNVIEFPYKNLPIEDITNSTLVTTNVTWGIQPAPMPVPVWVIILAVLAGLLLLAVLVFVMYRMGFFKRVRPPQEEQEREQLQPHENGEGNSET
T1 sequence (P05106 27-788, chain 2 of 2): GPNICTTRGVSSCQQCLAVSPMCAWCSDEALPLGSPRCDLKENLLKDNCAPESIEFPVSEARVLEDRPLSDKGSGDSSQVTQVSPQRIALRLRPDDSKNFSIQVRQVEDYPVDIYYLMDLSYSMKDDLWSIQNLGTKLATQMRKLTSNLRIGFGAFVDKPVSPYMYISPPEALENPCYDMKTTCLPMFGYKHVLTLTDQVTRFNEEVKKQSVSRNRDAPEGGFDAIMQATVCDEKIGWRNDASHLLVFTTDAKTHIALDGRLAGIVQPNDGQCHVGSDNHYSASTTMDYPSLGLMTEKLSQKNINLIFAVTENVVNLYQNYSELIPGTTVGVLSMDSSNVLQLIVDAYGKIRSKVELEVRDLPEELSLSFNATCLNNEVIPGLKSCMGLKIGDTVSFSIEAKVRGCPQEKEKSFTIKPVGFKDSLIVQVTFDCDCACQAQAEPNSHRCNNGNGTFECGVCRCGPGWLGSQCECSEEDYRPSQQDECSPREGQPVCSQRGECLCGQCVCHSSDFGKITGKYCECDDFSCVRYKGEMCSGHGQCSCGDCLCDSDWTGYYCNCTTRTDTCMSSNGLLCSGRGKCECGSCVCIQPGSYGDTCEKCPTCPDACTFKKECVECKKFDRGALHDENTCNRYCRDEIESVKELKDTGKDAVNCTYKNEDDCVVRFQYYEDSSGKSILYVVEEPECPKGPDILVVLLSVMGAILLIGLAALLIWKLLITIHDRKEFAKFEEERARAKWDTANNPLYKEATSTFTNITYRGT
Description: competitive inhibition of integrin αvβ3-vitronectin interaction on protein chip.
Description: After reaction, those were washed for about 10 minutes with 0.5% PBST containing 3% BSA. Competitive inhibitory abilities of antagonists were measured by analyzing the degree of ligand binding as relative fluorescence intensity with a fluorescence scanner.
For orientation: IC50 means the concentration that inhibits the measured activity by half. Molecule B1 registered a half-maximal inhibitory concentration (IC50) of 0.00243 ng/mL.
In the case of B2, the IC50 came to 0.0447 ng/mL. Compared with the last molecule, the IC50 is about 18-fold higher.
Molecule B3 displayed an IC50 of 0.0307 ng/mL.
For B4, the IC50 is 0.313 ng/mL.
B5: the IC50 came to 0.00174 ng/mL.
Then B6, with 0.046 ng/mL.
Then B7, with 0.0034 ng/mL.

Source of the values: patent US20070249061A1 (PROTEOGEN, published 2007).
